# From PMC12232145 (BMC Microbiology, 2025)
# B1: recombinant FabG (3-ketoacyl-ACP reductase) of Streptococcus suis serotype 2 strain ZY05719 (natural protein, UniProt A0A0H3MXL9 1-244, looked up)
# chain: MELTNKNVFVTGSSRGIGLAIAHKFASLGANVVLNGRGQLGQDLLDSFADYGVKVLAISGDISSAQDAKRMVAEAIETLGSVDILVNNAGITKDGMALRMTEEDFDTVLKVNLTGTFNMTQAVLKPMTKAREGAIINLSSVSGLIGNAGQANYSASKAGVIGFTKAIAREVAGRNVRVNAIAPGFIQSDMTDVLSDKIKEAMTAQIPMKRFGATEEVADVAVFLAKQEYLTGQVIAVDGGLTMQ
# Molecular target: human plasminogen (human, UniProt P00747 20-810)
# Test: SPR
# Sequence of human plasminogen (P00747 20-810): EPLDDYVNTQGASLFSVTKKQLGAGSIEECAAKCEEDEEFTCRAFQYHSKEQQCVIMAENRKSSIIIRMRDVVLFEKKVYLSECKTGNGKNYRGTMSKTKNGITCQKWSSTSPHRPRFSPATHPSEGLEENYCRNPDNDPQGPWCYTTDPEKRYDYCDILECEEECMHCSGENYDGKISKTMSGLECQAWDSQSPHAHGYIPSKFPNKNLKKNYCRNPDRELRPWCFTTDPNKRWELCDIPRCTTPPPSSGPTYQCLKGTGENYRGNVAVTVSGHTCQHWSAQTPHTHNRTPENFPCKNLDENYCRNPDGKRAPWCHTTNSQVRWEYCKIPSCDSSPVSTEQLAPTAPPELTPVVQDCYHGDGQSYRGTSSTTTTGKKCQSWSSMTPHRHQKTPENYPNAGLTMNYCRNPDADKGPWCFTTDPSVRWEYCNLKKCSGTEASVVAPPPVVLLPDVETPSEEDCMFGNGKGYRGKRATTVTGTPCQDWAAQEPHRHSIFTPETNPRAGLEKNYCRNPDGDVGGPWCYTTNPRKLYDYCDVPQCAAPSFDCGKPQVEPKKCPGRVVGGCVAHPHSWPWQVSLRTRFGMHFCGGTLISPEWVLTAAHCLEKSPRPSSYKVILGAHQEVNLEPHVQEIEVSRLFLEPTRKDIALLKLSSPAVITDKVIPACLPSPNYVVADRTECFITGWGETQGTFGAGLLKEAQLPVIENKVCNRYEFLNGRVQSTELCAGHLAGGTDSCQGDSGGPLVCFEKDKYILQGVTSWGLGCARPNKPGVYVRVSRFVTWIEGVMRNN
binder,measurement,value
B1,Kd,1.72 nM
